Data taken from publication PMC12678776.

Experiments:
[1] = system: ecHOP1-wHTH (SUMO-wHTH) (Ectocarpus); assay: EMSA; conditions: apparent Kd, Hill h = 1.7; 50 nM DNA; EMSA: 50 nM nucleic acid, protein 25 nM-2 uM, ~30 min at 4 C, 0.8% agarose in 0.2% TBE (so in the source) at 4 C, SYBR Gold; binding buffer, salt and pH not stated
[2] = molecular target: 2xStrepII-ecHOP1-HORMA (ecHOP1 residues 1-274) (Ectocarpus siliculosus); assay: ITC; 350 µM MBP-tagged CM titrated into 25 µM ecHOP1-HORMA in the cell; 50 mM HEPES pH 7.5, 150 mM NaCl, 1 mM EDTA; 25 °C; MicroCal PEAQ-ITC; triplicate

Substance | Kd [1] | Kd [2]
167 bp Widom DNA | 250 nM | 
His6-MBP-CM-R-A (ecRED1 closure motif A) (domain or fragment) |  | 60.3 µM
MBP-CM-H1-A (ecHOP1 isoform 1 closure motif A, residues 567-600) (domain or fragment) |  | 7.2 µM
MBP-CM-H1-B (ecHOP1 isoform 1 closure motif B, residues 665-694) (domain or fragment) |  | 10.6 µM
